Assay results published in patent publication US20170137473A1, “FLUOROGEN ACTIVATING AND SHIFTING TAG (FAST)” (PARIS SCIENCES ET LETTRE - QUARTIER LATIN, priority 2014, published 2017).
Changes are numbered by the printed parent chain. One block for each molecule: values may come before it.

Legend:
[1] = known in the art; cited from earlier work
wild-type PYP = biological target: T1, wild-type PYP (Halorhodospira halophila, UniProt P16113, C69G); test: Fluorogen labeling of cells expressing wild-type PYP; assay type: cell-based
T1 construct: fusion partner differs by host: Aga2p (yeast surface display, pAG14); His-tag-ENLYFQG (E. coli, pET28a); expressed in transfected cells
Protocol: (§1) Flow cytometry analysis was performed on an Accuri C6 (BD Biosciences). Confocal micrographs were acquired on a Zeiss LSM 710 Laser Scanning Microscope equipped with a Plan Apochromat 63×/1.4 NA oil immersion objective. ZEN software was used to collect the data. Images were analyzed with Image J. Spinning-disk confocal micrographs were acquired on a Nikon Eclipse Ti microscope equipped with a 4×/0.15 N.A objective and a coolSnap HQ2/CDDcamera (Princeton Instrument). Metamorph premier 7.6 software (Molecular Devices) was used to collect the data.
(§2) Labeling of Y-FAST with HBR and HMBR in cells was then analyzed by flow cytometry in three different expression systems: yeast, E. coli and mammalian cells (HeLa cells). The fluorescence was compared to wild-type cells or cells expressing wild-type PYP. […] The performance and selectivity of Y-FAST labeling in mammalian cells, yeast and bacteria was furthermore confirmed by confocal microscopy (FIG. 14d and FIGS. 15 c to f and FIG. 16).

[2] = system: wild-type bacteria, yeast and mammalian cells; test: Fluorescence background of fluorogen in wild-type cells (flow cytometry, confocal); assay type: cell-based
Protocol: as §1, §2

HeLa cells [3] = test: LIVE/DEAD viability assay (calceinAM, EthD1) of HeLa cells; assay type: cell-based; conditions: incubated 5 h at 5, 10 and 20 μM; concentrations used for imaging
Protocol: Cell viability was tested by using calceinAM and EthD1 (LIVE/DEAD® viability/cytotoxicity assay kit). CalceinAM is a cell-permeant profluorophore cleaved by intracellular esterases releasing the green fluorescent polyanionic calcein in live cells. EthD1 (Ethidium homodimer 1) is a non cell-permeant nucleic acid red fluorescent stain that enters only cells with damaged membranes and undergoes a fluorescence enhancement upon binding to nucleic acids, thereby producing a bright red fluorescence in dead cells. Control experiments with HeLa cells non-incubated with dye (top left, live control) or incubated for 1 h with 1% hydrogen peroxyde (top right, dead control) are shown. Cell fluorescence was evaluated by confocal microscopy.

[4] = Acid-base titration and absorption/emission of free fluorogen in aqueous solution; assay type: physicochemical
Protocol: (§3) pH measurements were performed on a Standard pH meter PHM210 Radiometer Analytical (calibrated with aqueous buffers at pH 4 and 7 or 10) with a Crison 5208 Electrode (Barcelona, Spain). UV/Vis absorption spectra were recorded in 1 cm×1 cm quartz cuvettes (Hellma) on a diode array UV/Vis spectrophotometer (Evolution array, Thermo Scientific). Corrected fluorescence spectra upon one-photon excitation were recorded with a Photon Technology International QuantaMaster QM-1 spectrofluorimeter (PTI, Monmouth Junction, NJ) equipped with a Peltier cell holder (TLC50, Quantum Northwest, Shoreline, Wash.). The overall emission quantum yields after one-photon excitation φ were calculated from the relation: […]
(§4) where the subscript ref stands for standard samples. A(λexc) is the absorbance at the excitation wavelength λexc, D is the integrated emission spectrum, and n is the refractive index for the solvent. The uncertainty for the experimental value of φ was estimated to be ±20%. The standard fluorophore for the quantum yields measurements was Fluorescein in sodium hydroxide 0.1 M with φref=0.92. The titration experiments used for the determination of the thermodynamic constants were performed on a SpectraMax®M5e (Molecular Devices) plate-reader. The on- and off-rate constants were determined by stopped-flow experiments using a RX2000 rapid kinetic stopped flow accessory (Applied Photophysics, Leatherhead, UK). The circular dichroism spectra were recorded on a J-815 circular dichroism spectropolarimeter (Jasco). The photobleaching experiments were performed on a the Photon Technology International QuantaMaster QM-1 spectrofluorimeter (PTI, Monmouth Junction, NJ) equipped with a Peltier cell holder (TLC50, Quantum Northwest, Shoreline, Wash.).
The stability of the synthesized compounds was evaluated in aqueous solutions at neutral pH. Unstable and/or non-soluble compounds were not further studied. The photochemical and acido-basic properties of the remaining compounds were thus analyzed. Acid-base titrations were performed in aqueous solution by recording absorption and emission spectra as a function of pH.
The protonated phenol state of HBR was indeed shown to strongly absorb violet light (maximal absorption wavelength 397 nm), while the phenolate state strongly absorbs blue light (maximal absorption wavelength 449 nm) (FIG. 2). This red-shift in absorption upon ionization can be explained by the stronger electronic donation of the negatively charged phenolate. The possible fluorescence increase of HBR was evaluated by restricting the motion thereof in monitoring the influence of medium viscosity on HBR fluorescence emission. With a pKA of 8.4±0.1, HBR is mainly protonated at physiological pH, which enabled to forecast it could undergo a specific red shift upon binding-induced deprotonation within a tailored protein cavity. In aqueous solution, both acidic and basic states of HBR are weakly fluorescent (FIG. 3), emitting respectively at 470 and 545 nm with 0.02% and 0.3% fluorescence quantum yields.

HeLa cells [5] = test: Brightness and photostability of fluorescent proteins expressed in mammalian (HeLa) cells; assay type: cell-based
Protocol: FIG. 18 is a set of graphs and images showing Y-FAST brightness and photo-resistance in mammalian cells. […] (a) Confocal micrographs of representative cells (Ex/Em 488/493-797 nm; scale bars 10 μm). Side-by-side images were recorded using the same settings for direct comparison of the fluorescence intensities. (b) Quantification of the fluorescence brightness of the different proteins (n=15-30 cells).
UnaG upon long-term observation with high power 488 nm laser excitation (light power 90 kW·cm-2, pixel dwell 1.58 μs). Plots show the fluorescence intensity as a function of the number of confocal microscope scans.
HEK293 and HeLa cells were cultured in DMEM supplemented with phenol red, Glutamax I, 10% fetal calf serum and 1% penicillin-streptomycin at 37° C. within a 5% CO2 atmosphere. For microscopy imaging, cells were seeded in μDish IBIDI (Biovalley) coated with poly-L-lysine. Cells were transiently transfected using Genejuice (Merck) according to the manufacturer's protocol.
as §1

[6] = Circular dichroism stability of Y-FAST versus temperature; assay type: physicochemical; conditions: 25-45° C. range
From the text: Note that we verified by circular dichroism, that Y-FAST was stable in the considered temperature range in order to ascertain that our two-state model was valid for the subsequent analyses.
as §4

[7] = Absorption and emission properties of HBR-binding PYP variants in presence of HBR; assay type: physicochemical; conditions: variant with HBR; for λabs / λem: PBS pH 7.4; for Fluorescence quantum yield: fraction
Protocol: as §3, §4
The photophysical properties of the engineered fluorescent proteins were more precisely characterized. […] This 70 nm red-shift in absorption was in accordance with HBR being bound within the PYP-variant cavity in its deprotonated state. This red-shift in absorption upon binding was also accompanied with a large fluorescence increase at 540 nm (FIG. 10 and Table 2 below).

[8] = glycerol content increased from 0 to 40% (v/v)

T1 sequence (P16113 whole entry C69G, the tested form may be a part): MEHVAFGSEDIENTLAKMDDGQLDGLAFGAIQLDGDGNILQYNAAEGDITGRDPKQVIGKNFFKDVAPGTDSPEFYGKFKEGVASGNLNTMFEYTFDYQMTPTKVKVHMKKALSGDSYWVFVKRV

- Relative brightness (% of EGFP) [7]: 12 % of EGFP
- brightness [7]: 4,000
- Fluorescence quantum yield [7]: 0.09
B1: Clone 3: best fluorescent HBR-binding PYP variant, SEQ ID NO: 3, residues 94-101 WMIPTSRG (protein)
chain: MEHVAFGSEDIENTLAKMDDGQLDGLAFGAIQLDGDGNILQYNAAEGDITGRDPKQVIGKNFFKDVAPGTDSPEFYGKFKEGVASGNLNTMFEWMIPTSRGPTKVKVHMKKALSGDSYWVFVKRV
modifications: Functional derivative of SEQ ID NO: 48 - Clone 3
- photostability in cells (HeLa cells [5]; 488 nm excitation): more stable than UnaG and Venus, but less than EGFP
- fluorescence in mammalian cells (HeLa cells [5]; blue excitation at 488 nm, Y-FAST labeled with 5 μM HMBR): comparable with that of the green fluorescent proteins EGFP and UnaG, and two fold lower than that of the yellow fluorescent Venus
- photostability in cells (HeLa cells [5]; excitation at 514 nm): almost did not photobleach
- fluorescence in mammalian cells (HeLa cells [5]; green excitation at 514 nm): five-fold less than Venus
- stability by circular dichroism [6]: stable
- Extinction coefficient [7]: 44,000 M^−1cm^−1
- λabs [7]: 467 nm
- λem [7]: 542 nm

- Relative brightness (% of EGFP) [7]: 7.4 % of EGFP
- brightness [7]: 2,500
- Fluorescence quantum yield [7]: 0.06
B2: Clone 4: fluorescent HBR-binding PYP variant, SEQ ID NO: 4, residues 94-101 WDIPTNPE (protein)
chain: B1 chain with M95D, S99N, R100P, G101E
modifications: Functional derivative of SEQ ID NO: 48 - Clone 4
- Extinction coefficient [7]: 41,000 M^−1cm^−1
- λabs [7]: 468 nm
- λem [7]: 541 nm

- Relative brightness (% of EGFP) [7]: 8.3 % of EGFP
- brightness [7]: 2,800
- Fluorescence quantum yield [7]: 0.06
B5: Clone 2: fluorescent HBR-binding PYP variant, SEQ ID NO: 2, residues 94-101 WLIPTLPQ (protein)
chain: B1 chain with M95L, S99L, R100P, G101Q
modifications: Functional derivative of SEQ ID NO: 48 - Clone 2
- Extinction coefficient [7]: 46,000 M^−1cm^−1
- λabs [7]: 466 nm
- λem [7]: 540 nm

More lines, now with the values behind:

Molecule: parahydroxybenzylidene-5-imidazolinone [p-HBI]
- absorption wavelength, deprotonated form [1]: 475 nm
- absorption wavelength, protonated form [1]: 397 nm

Molecule: O=C1NC(=S)S/C1=C\c1ccc(O)cc1 [HBR, (Z)-5-(4-hydroxybenzylidene)-2-thioxo-1,3-thiazolidin-4-one]
- binding to wild-type PYP (wild-type PYP): do not bind
- fluorescence background in wild-type cells [2]: no or negligible fluorescence background
- toxicity for HeLa cells (HeLa cells [3]): non-toxic
- pKa ([4]; aqueous solution): 8.4 ± 0.1
- emission wavelength, acidic state ([4]; free in aqueous solution): 470 nm
- emission wavelength, basic state ([4]; free in aqueous solution): 545 nm
- fluorescence quantum yield, acidic state ([4]; free in aqueous solution): 0.02%
- fluorescence quantum yield, basic state ([4]; free in aqueous solution): 0.3%
- maximal absorption wavelength, phenolate state ([4]; free in aqueous solution): 449 nm
- maximal absorption wavelength, protonated phenol state ([4]; free in aqueous solution): 397 nm
- maximal absorption wavelength ([4]; free, PBS pH 7.4): 397 nm
- increase of the fluorescence quantum yield, acidic state [4, 8]: Six
- increase of the fluorescence quantum yield, basic state [4, 8]: three-fold

B3: Clone 5: fluorescent HBR-binding PYP variant, SEQ ID NO: 5, residues 94-101 WRIPTECA (protein)
chain: B1 chain with M95R, S99E, R100C, G101A
modifications: Functional derivative of SEQ ID NO: 48 - Clone 5
- Extinction coefficient [7]: 47,000 M^−1cm^−1
- Relative brightness (% of EGFP) [7]: 8.3 % of EGFP
- brightness [7]: 2,800
- λabs [7]: 468 nm
- λem [7]: 542 nm
- Fluorescence quantum yield [7]: 0.06

B4: Clone 6: fluorescent HBR-binding PYP variant, SEQ ID NO: 6, residues 94-101 WLIPTRNA (protein)
chain: B1 chain with M95L, S99R, R100N, G101A
modifications: Functional derivative of SEQ ID NO: 48 - Clone 6
- Extinction coefficient [7]: 43,000 M^−1cm^−1
- Relative brightness (% of EGFP) [7]: 9.0 % of EGFP
- brightness [7]: 3,000
- λabs [7]: 467 nm
- λem [7]: 539 nm
- Fluorescence quantum yield [7]: 0.07
